Results reported in patent US20240252606A1 (CHANGCHUN BCHT BIOTECHNOLOGY, published 2024).

Biological target: the molecule itself
Experiment: native gel electrophoresis, self-assembly

B1: lysine-modified norovirus capsid P protein PP-3K (other)
chain: MGKPFSVPILTVEEMTNSRFPIPLEKLFTGPSSAFVVQPQNGRCTTDGVLLGTTQLSPVNICTFRGDVTHIAGKTQNYTMNLASQNWNNYDPTEEIPAPLGTPDFVGRIQGVLTQTTRRDGSTRGHKATVSTGSVHFTPKLGSVQFSTDTSKNDFETGQNTRFTPVGVVQDGKSTTHQNEPQQWVLPDYSGRDSHNVHLAPAVAPTFPGEQLLFFRSTMPGCSGYPNMNLDCLLPQEWVQHFYQESAPAQSDVALLRFVNPDTGRVLFECKLHKSGYVTVAHTGQHDLVIPPNGYFRFDSWVNQFYTLAPMGNGAGRRRAL
notes: self-assembles into dodecamers and tetracosamers
B1: binds.

B2: cysteine-modified norovirus capsid P protein PP-3C (other)
chain: MGKPFSVPILTVEEMTNSRFPIPLEKLFTGPSSAFVVQPQNGRCTTDGVLLGTTQLSPVNICTFRGDVTHIAGCQNYTMNLASQNWNNYDPTEEIPAPLGTPDFVGRIQGVLTQTTRRDGSTRGHKATVSTGSVHFTPKLGSVQFSTDTCNDFETGQNTRFTPVGVVQDCSTTHQNEPQQWVLPDYSGRDSHNVHLAPAVAPTFPGEQLLFFRSTMPGCSGYPNMNLDCLLPQEWVQHFYQESAPAQSDVALLRFVNPDTGRVLFECKLHKSGYVTVAHTGQHDLVIPPNGYFRFDSWVNQFYTLAPMGNGAGRRRAL
notes: as for B1
B2: binds.
